± gives the standard error. For some assays here: Variants at the floor of the assay were thinned out.
B1: glmS ribozyme (parent)
chain: AUAAAAGCGCCAGAACUACAGAAAUGUAGUUGACGAGGAGGAGGUUUAUCGAAUUUUCGGCGGAUGCCUCCAAA

Key:
Settings in all cases: with glucosamine-6-phosphate
glucosamine-6-phosphate [1] = variants of: B1; assay: kcat; higher = faster cleavage; RNA array
In short: (§1)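 On sequenced MiSeq chips, barcoded ribozyme variants were made in situ by E. coli RNA polymerase and followed at 37 °C through a hybridised Cy3 probe. Glucosamine-6-phosphate was flowed in at 40 μM to 10 mM in HEPES/KCl/Mg(OAc)2 buffer. Exponential fits to normalised per-tile medians gave kobs, and weighted Michaelis–Menten fits gave kcat and KM.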

glucosamine-6-phosphate [2] = variants of: B1; assay: KM; higher = weaker cofactor use; RNA array
In short: as §1

glucosamine-6-phosphate [3] = variants of: B1; assay: self-cleavage kobs at 40 uM GlcN6P; higher = faster cleavage; RNA array
In short: as §1

glucosamine-6-phosphate [4] = variants of: B1; assay: self-cleavage kobs at 160 uM GlcN6P; higher = faster cleavage; RNA array
In short: as §1

glucosamine-6-phosphate [5] = variants of: B1; assay: self-cleavage kobs at 640 uM GlcN6P; higher = faster cleavage; RNA array
In short: as §1

glucosamine-6-phosphate [6] = variants of: B1; assay: self-cleavage kobs at 10000 uM GlcN6P; higher = faster cleavage; RNA array
In short: as §1

glucosamine-6-phosphate [7] = variants of: B1; assay: self-cleavage kobs at 2500 uM GlcN6P; higher = faster cleavage; RNA array
In short: as §1

Row | Variant | kcat (glucosamine-6-phosphate [1]) [s⁻¹] | KM (glucosamine-6-phosphate [2]) [µM] | self-cleavage kobs at 40 uM GlcN6P (glucosamine-6-phosphate [3]) [s⁻¹] | self-cleavage kobs at 160 uM GlcN6P (glucosamine-6-phosphate [4]) [s⁻¹] | self-cleavage kobs at 640 uM GlcN6P (glucosamine-6-phosphate [5]) [s⁻¹] | self-cleavage kobs at 10000 uM GlcN6P (glucosamine-6-phosphate [6]) [s⁻¹] | self-cleavage kobs at 2500 uM GlcN6P (glucosamine-6-phosphate [7]) [s⁻¹]
1 | A15U A39G | 0.00892 ± 0.0027 | 1830 ± 730 | 0.000203 ± 3.1e-05 | 0.000706 ± 0.00028 | 0.0023 ± 0.00069 | 0.00943 ± 0.0017 | 
2 | G59U G66A | 2.67e-05 ± 2.5e-07 | 3110 ± 100 |  |  |  |  | 
3 | A15G G29C | 0.00276 ± 0.00064 | 3540 ± 1400 | 3.64e-05 ± 1.1e-05 | 0.000187 ± 5.3e-05 | 0.000327 ± 7.2e-05 | 0.002 ± 0.00023 | 0.00156 ± 0.00032
4 | G38U C68G | 0.000246 ± 5.7e-05 | 108 ± 52 | 6.28e-05 ± 1e-05 | 0.000349 ± 0.00017 | 0.000294 ± 4.2e-05 | 0.000182 ± 4e-05 | 
5 | C50G C67U | 0.000113 ± 9.9e-06 |  | 9.57e-05 ± 8e-06 | 0.000129 ± 1.6e-05 | 0.000141 ± 1.7e-05 | 0.000101 ± 7.4e-06 | 0.000126 ± 1.5e-05
6 | A12U U45A A53U | 0.125 ± 0.042 | 1100 ± 390 | 0.00437 ± 0.0009 |  |  |  | 
7 | C10A A39G | < 1e-05 |  |  | < 1e-05 | < 1e-05 |  | 
8 | U30C A52G | 1.33e-05 ± 2.9e-06 |  |  |  |  |  | 
9 | G13A A15G | 0.000875 ± 0.00018 | 1840 ± 670 |  | 6.23e-05 ± 1.3e-05 | 0.000327 ± 5.6e-05 | 0.000784 ± 0.00011 | 0.000431 ± 7.3e-05
10 | A53C C71U | 0.00685 ± 0.001 | 1760 ± 360 | 0.000156 ± 2.5e-05 | 0.000539 ± 0.0001 | 0.00167 ± 0.00036 | 0.00509 ± 0.0011 | 0.00474 ± 0.00067
11 | G29C G37A | 0.000262 ± 4.4e-05 | 6200 ± 1700 |  |  |  | 0.000165 ± 3.8e-05 | 7.11e-05 ± 1.8e-05
12 | U47C A53U | 0.00157 ± 0.00025 | 1150 ± 280 | 4.38e-05 ± 9.7e-06 | 0.000209 ± 4.6e-05 | 0.000671 ± 0.00012 | 0.00124 ± 0.00025 | 0.0012 ± 0.00023
13 | A15C C68A | 2.89e-05 ± 1.1e-05 |  |  |  |  |  | 
14 | A6U C16U | 0.000238 ± 2.8e-05 | 1970 ± 520 |  | 2.54e-05 ± 9.5e-06 | 6.36e-05 ± 7.9e-06 | 0.00021 ± 1.7e-05 | 0.000118 ± 1.2e-05
15 | G29U C50A | < 1e-05 |  | < 1e-05 |  |  |  | 
16 | U56G G66U | 0.000858 ± 0.00012 | 1780 ± 400 | 3.12e-05 ± 8.7e-06 | 6.25e-05 ± 7.4e-06 | 0.000237 ± 2.4e-05 | 0.000682 ± 6.4e-05 | 0.000576 ± 5.7e-05
